Reference: patent US20230357364A1 (INTERNATIONAL AIDS VACCINE INITIATIVE, published 2023)
Positions count from the first letter of the chain named.

B1: L6.dP02F01 (antibody, V domains shown)
VH: EVQLVESGGGLVQPGRSLRLSCAASGFTFDDYAMHWVRQAPGKGLEWVSGISWNSGSIAFAGSVKGRFTISRDNAKNSLYLQMNSLRAEDTALYYCAKDQGYSYGNYFDYWGQGTLVTVSS
VL: QLVLTQPPSVSVAPGKTARITCGGNNIGSKSVYWYQQKPGQAPVLVVYDDSDRPSGIPERFSGSNSGNTATLTISRVEAGDEADYYCQVWDSSSDHPYVFGSGTKVTVL
notes: human IgG1
B2: L25.dP06E11 (antibody, V domains shown)
VH: QVQLVESGGGLVQPGRSLRLSCAASGFTFDDYAMHWVRQAPGKGLEWVSGISWNSGSIGYADSVKGRFTISRDNAKNSLYLQMNGLRAEDTALYYCAKVPQRSRYLVGWFDPWGQGTLVTVSS
VL: not shown
notes: human IgG1
B3: L12.cP08A09 (antibody, V domains shown)
VH: QVQLVQSGAEVKKPGASVKVSCKASGYIYSGYYMHWVRQAPGQGLEWMGWISPDSGGTNYAQRFQGRVTMTRDTSTTTAYMELSRLRSDDTAVYYCARGPRYSGTYFDYWGQGTLVTVSS
VL: QSALTQPASVSGSPGQSITISCTGTSSDVGGYNYVSWYQQHPDKAPKLMIYDVSNRPSGVSNRFSGSKSGNTASLTISGLQAEDEADYYCSSYTSGSTQVFGGGTKLTVL
notes: human IgG1
B4: L25.eP04C02 (antibody, V domains shown)
VH: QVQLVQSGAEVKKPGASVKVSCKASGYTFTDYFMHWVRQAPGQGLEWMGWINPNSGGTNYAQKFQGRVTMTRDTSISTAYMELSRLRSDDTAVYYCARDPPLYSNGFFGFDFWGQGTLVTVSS
VL: B3 VL with A3V, D43G, G96S, Q99V
notes: human IgG1
B5: L12.bP12H09 (antibody, V domains shown)
VH: B3 VH with Y29F, M34T, R63K, T76I, M81V, R85G
VL: B3 VL with Y34H, D43G, G96S, T98A, V100L
notes: human IgG1
B6: L12.bP10G07 (antibody, V domains shown)
VH: B3 VH with Q1E, V93M
VL: B3 VL with S2T, A3V, L4V, M49I, D87A, G96S
notes: human IgG1
B7: L12.cP09C07 (antibody, V domains shown)
VH: B3 VH with Y33F, T58A, R63T, Y80H, Y106H
VL: B3 VL with I18L, S54N, N71S, T94A, S95G, G96S, T108I
notes: human IgG1
B8: L12.bP11C10 (antibody, V domains shown)
VH: B3 VH with Y29F, R63K, T76I, A79G, R85G, V118I
VL: B3 VL with A8T, D43G, M49I, S95V, G96S
notes: human IgG1
B9: L6.dP02A05 (antibody, V domains shown)
VH: EVQLVQSGAEVKKPGASVKVSCMASGYTFTSYYMHWVRQAPGQGLEWMGIISPSGGGTSYAQKFQGRVTLTRDTSTSTVYMELSSLRSEDTAVYYCARWYDSTGSIDYWGQGTLVTVSS
VL: DIVMTQSPSSLSASVGDRVTITCRASQGIRNDLGWYQQKPGKAPKRLIYAASSLQSGVPSRFSGSGSGTEFTLTISSLQPEDFATYYCLQHNSYPILTFGGGTKVEIK
notes: human IgG1
B10: L12.bP12E05 (antibody, V domains shown)
VH: EVQLVQSGAEVKKPGASVKVTCKTSGYIFSGYYMHWVRQVPGQGLEWMGWISPDSGATNYAQKFQGRVTMTRDTSITTSYVELTWLKSDDTAVYYCARGPRYSGTYFDFWGQGTLVTVSS
VL: QAVVTQPASVSGSPGQSLTISCTGTSSDIGGFNYVSWYQQHPGKAPKLMIFDVSKRPSGVPNRFSGSKSGNTASLTISGLQAEDEGDYYCSSYTISSAQVFGGGTKLTVL
notes: human IgG1
B11: L12.cP09D03 (antibody, V domains shown)
VH: B3 VH with Y29F, M34T, R63K, T76I, M81V, R85G
VL: B3 VL with A3V, D43G, A45V, G96S, T98A, V100L
notes: human IgG1
B12: L12.bP11A06 (antibody, V domains shown)
VH: EVQLVESGGGLIQPGGSLRLSCAASGLTVSSNYMSWVRQAPGKGLEWVSVIYSGGSTFYADSVKGRFTISRDNSKNTLYLQMNSLRAEDTAVYYCARDLDVYGLDVWGQGTTVTVSS
VL: DIVMTQSPSFLSASVGDRVTITCRASQGISSYLAWYQQKPGKAPKLLIYAASTLQSGVPSRFSGSGSGTEFTLTISSLQPEDFATYYCQQLNSYPPKFTFGPGTKVEIK

target: SARS-CoV-2 RBD (RBD-2) (SARS-CoV-2); assay: ELISA

B1 and B2 are within 1.5-fold of each other in EC50: 0.013 µg/mL for the first, 0.016 µg/mL for the second.

Compared with B3, B4 is 26-fold lower in EC50: 0.666 µg/mL for the first, 0.026 µg/mL for the second.

Going from B5 to B6, the EC50 rises from 0.483 µg/mL to 1.41 µg/mL (2.9-fold).

First: B7
Second: B8
The EC50 of the first is 20-fold lower: 0.16 µg/mL for the first, 3.12 µg/mL for the second.

Compared with B9, B10 is 47-fold higher in EC50: 0.025 µg/mL for the first, 1.17 µg/mL for the second.

target: SARS-CoV-1 RBD (RBD-1) (SARS-CoV-1); assay: ELISA

B1 and B2 are within 1.5-fold of each other in EC50: 0.021 µg/mL for the first, 0.017 µg/mL for the second.

B3 and B4 cannot be ordered by EC50: > 50 µg/mL for the first, > 50 µg/mL for the second.

B5 and B6 cannot be ordered by EC50: > 50 µg/mL for the first, > 50 µg/mL for the second.

B11 and B7 cannot be ordered by EC50: > 50 µg/mL for the first, > 50 µg/mL for the second.

B8 and B9 cannot be ordered by EC50: > 50 µg/mL for the first, > 50 µg/mL for the second.

With B10 the EC50 was > 50 µg/mL.

target: SARS-CoV-2 RBD (RBD-2) (SARS-CoV-2); assay: SPR, Fc-captured IgG

B3 and B5 are within 1.5-fold of each other in Kd: 175 nM for the first, 155 nM for the second.

B6 and B11 are within 1.5-fold of each other in Kd: 220 nM for the first, 147 nM for the second.

First: B7
Second: B8
The Kd of the first is 2.9-fold lower: 87.9 nM for the first, 255 nM for the second. The first binds more tightly here.

With B10 the Kd was 183 nM.

Going from B3 to B5, the koff rises from 0.0707 s⁻¹ to 0.12 s⁻¹ (1.7-fold).

B6 and B11 are within 1.5-fold of each other in koff: 0.0961 s⁻¹ for the first, 0.0843 s⁻¹ for the second.

First: B7
Second: B8
The koff of the first is 1.8-fold lower: 0.0691 s⁻¹ for the first, 0.126 s⁻¹ for the second.

In the case of B10, the koff is reported as 0.143 s⁻¹.

Compared with B3, B5 is 1.9-fold higher in kon: 404000 M⁻¹ s⁻¹ for the first, 773000 M⁻¹ s⁻¹ for the second.

B6 and B11 are within 1.5-fold of each other in kon: 436000 M⁻¹ s⁻¹ for the first, 575000 M⁻¹ s⁻¹ for the second.

Compared with B7, B8 is 1.6-fold lower in kon: 786000 M⁻¹ s⁻¹ for the first, 493000 M⁻¹ s⁻¹ for the second.

With B10 the kon was 782000 M⁻¹ s⁻¹.

target: T1, SARS-CoV-2 spike on pseudovirus or live virus (USA-WA1/2020, WT) (SARS-CoV-2, UniProt P0DTC2 14-1273); assay: cell-based or functional assay

Compared with B3, B5 is 6.2-fold lower in “PSV neutralization IC50” value: 0.382 µg/mL for the first, 0.062 µg/mL for the second.

Compared with B6, B11 is 2.5-fold lower in “PSV neutralization IC50” value: 0.865 µg/mL for the first, 0.351 µg/mL for the second.

B7 and B8 are within 1.5-fold of each other in “PSV neutralization IC50” value: 0.085 µg/mL for the first, 0.092 µg/mL for the second.

B10 was tested, and the “PSV neutralization IC50” value was 0.075 µg/mL.

target: T2, SARS-CoV-1 spike on pseudovirus (SARS-CoV-1, UniProt P59594 14-1255); assay: cell-based or functional assay

B12 and B3 cannot be ordered by “PSV neutralization IC50” value: > 50 µg/mL for the first, > 50 µg/mL for the second.

B5 and B11 cannot be ordered by “PSV neutralization IC50” value: > 50 µg/mL for the first, > 50 µg/mL for the second.

B7 and B8 cannot be ordered by “PSV neutralization IC50” value: > 50 µg/mL for the first, > 50 µg/mL for the second.

B10 was tested, and the “PSV neutralization IC50” value was > 50 µg/mL.

target: T1, SARS-CoV-2 spike on pseudovirus or live …; assay: cell-based or functional assay; remark: another data set of the same source

Compared with B12, B1 is lower in “Maximum Plateau of Neutralization” value: 100% for the first, 99% for the second.

Going from B2 to B3, the “Maximum Plateau of Neutralization” value rises from 55% to 99%.

B4 and B5 are the same in “Maximum Plateau of Neutralization” value: 100% for the first, 100% for the second.

First: B6
Second: B11
The “Maximum Plateau of Neutralization” value of the first is higher: 100% for the first, 85% for the second.

Going from B7 to B8, the “Maximum Plateau of Neutralization” value rises from 95% to 100%.

Compared with B9, B10 is lower in “Maximum Plateau of Neutralization” value: 100% for the first, 89% for the second.

Going from B12 to B1, the “PSV neutralization IC50” value rises from 0.019 µg/mL to 1.09 µg/mL (57-fold).

Compared with B2, B3 is 23-fold lower in “PSV neutralization IC50” value: 34.6 µg/mL for the first, 1.5 µg/mL for the second.

B4 and B5 are within 1.5-fold of each other in “PSV neutralization IC50” value: 0.155 µg/mL for the first, 0.106 µg/mL for the second.

Compared with B6, B11 is 2.4-fold lower in “PSV neutralization IC50” value: 0.328 µg/mL for the first, 0.135 µg/mL for the second.

Compared with B8, B9 is 8.4-fold lower in “PSV neutralization IC50” value: 0.494 µg/mL for the first, 0.059 µg/mL for the second.

For B10, the “PSV neutralization IC50” value was 0.255 µg/mL.

target: T2, SARS-CoV-1 spike on pseudovirus; assay: cell-based or functional assay; remark: another data set of the same source

Going from B12 to B1, the “PSV neutralization IC50” value falls from > 50 µg/mL to 5.56 µg/mL.

B2 and B3 cannot be ordered by “PSV neutralization IC50” value: > 50 µg/mL for the first, > 50 µg/mL for the second.

B4 and B5 cannot be ordered by “PSV neutralization IC50” value: > 50 µg/mL for the first, > 50 µg/mL for the second.

B6 and B11 cannot be ordered by “PSV neutralization IC50” value: > 50 µg/mL for the first, > 50 µg/mL for the second.

B7 and B8 cannot be ordered by “PSV neutralization IC50” value: > 50 µg/mL for the first, > 50 µg/mL for the second.

B9 and B10 cannot be ordered by “PSV neutralization IC50” value: > 50 µg/mL for the first, > 50 µg/mL for the second.

target: SARS-CoV-2 RBD (RBD-2) (SARS-CoV-2); assay: flow, HeLa-ACE2, mAb:RBD=2:1

Going from B3 to B5, the “% inhibition of RBD binding to hACE2” value rises from 39.4% to 41.6%.

Compared with B6, B11 is higher in “% inhibition of RBD binding to hACE2” value: 36.6% for the first, 40.9% for the second.

Compared with B7, B8 is lower in “% inhibition of RBD binding to hACE2” value: 54.5% for the first, 38.5% for the second.

Compared with B3, B5 is lower in “MFI (RBD binding to cell surface)” value: 6800 for the first, 6560 for the second.

First: B6
Second: B11
The “MFI (RBD binding to cell surface)” value of the first is higher: 7120 for the first, 6640 for the second.

Compared with B7, B8 is higher in “MFI (RBD binding to cell surface)” value: 5130 for the first, 6900 for the second.

target: SARS-CoV-2 RBD (RBD-2) (SARS-CoV-2); assay: flow, HeLa-ACE2, mAb:RBD=4:1

First: B3
Second: B5
The “% inhibition of RBD binding to hACE2” value of the first is lower: 49% for the first, 54.7% for the second.

Going from B6 to B11, the “% inhibition of RBD binding to hACE2” value rises from 49.2% to 50.1%.

First: B7
Second: B8
The “% inhibition of RBD binding to hACE2” value of the first is higher: 64.3% for the first, 54.1% for the second.

Compared with B3, B5 is lower in “MFI (RBD binding to cell surface)” value: 5740 for the first, 5100 for the second.

First: B6
Second: B11
The “MFI (RBD binding to cell surface)” value of the first is higher: 5710 for the first, 5620 for the second.

Compared with B7, B8 is higher in “MFI (RBD binding to cell surface)” value: 4040 for the first, 5170 for the second.
